# Test results reported in patent US20230159662A1 (Kyowa Kirin, published 2023).
# Biological target: human CD16a (Val type) stably expressed on NK-92 cells (NK-92/CD16 transfectant) (human, UniProt P08637 17-254)
# Assay: cell-based or functional assay
# human CD16a (Val type) stably expressed on NK-92 cells (NK-92/CD16 transfectant), sequence (P08637 17-254 F176V): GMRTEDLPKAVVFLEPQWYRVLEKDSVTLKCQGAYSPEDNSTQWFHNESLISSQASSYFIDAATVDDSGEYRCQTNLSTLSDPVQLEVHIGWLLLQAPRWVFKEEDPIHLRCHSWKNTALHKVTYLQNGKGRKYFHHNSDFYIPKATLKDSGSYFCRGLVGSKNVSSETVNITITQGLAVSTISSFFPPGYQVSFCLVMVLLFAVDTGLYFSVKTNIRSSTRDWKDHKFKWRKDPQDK
row,relative ADCC activity (AAA = 100),Binder
1,"44 relative, AAA at 0.1 µg/mL = 100","human IgG1 anti-human CCR4 antibody (KM2160), S239E/I332W (antibody) heavy: not shown light: DVLMTQTPLSLPVSLGDQASISCRSSRNIVHINGDTYLEWYLQRPGQSPKLLIYKVSNRFSGVPDRFSGSGSGTDFTLKISRVEAEDLGVYYCFQGSLLPWTFGGGTRLEIRRTVAAPSVFIFPPSDEQLKSGTASVVCLLNNFYPREAKVQWKVDNALQSGNSQESVTEQDSKDSTYSLSSTLTLSKADYEKHKVYACEVTHQGLSSPVTKSFNRGEC"
2,"153 relative, AAA at 0.1 µg/mL = 100","human IgG1 anti-human CCR4 antibody (KM2160), S239E/I332E, CH of SEQ ID NO 176 (antibody) heavy: not shown light: DVLMTQTPLSLPVSLGDQASISCRSSRNIVHINGDTYLEWYLQRPGQSPKLLIYKVSNRFSGVPDRFSGSGSGTDFTLKISRVEAEDLGVYYCFQGSLLPWTFGGGTRLEIRRTVAAPSVFIFPPSDEQLKSGTASVVCLLNNFYPREAKVQWKVDNALQSGNSQESVTEQDSKDSTYSLSSTLTLSKADYEKHKVYACEVTHQGLSSPVTKSFNRGEC"
3,"109 relative, AAA at 0.1 µg/mL = 100","human IgG1 anti-human CCR4 antibody (KM2160), S239E/K326L (antibody) heavy: not shown light: DVLMTQTPLSLPVSLGDQASISCRSSRNIVHINGDTYLEWYLQRPGQSPKLLIYKVSNRFSGVPDRFSGSGSGTDFTLKISRVEAEDLGVYYCFQGSLLPWTFGGGTRLEIRRTVAAPSVFIFPPSDEQLKSGTASVVCLLNNFYPREAKVQWKVDNALQSGNSQESVTEQDSKDSTYSLSSTLTLSKADYEKHKVYACEVTHQGLSSPVTKSFNRGEC"
4,"53 relative, AAA at 0.1 µg/mL = 100","human IgG1 anti-human CCR4 antibody (KM2160), P230A/E233D/I332E (antibody) heavy: EVQLVESGGDLMKPGGSLKISCAASGFIFSNYGMSWVRQTPDMRLEWVATISSASTYSYYPDSVKGRFTISRDNAENSLYLQMNSLRSEDTGIYYCGRHSDGNFAFGYWGRGTLVTVSAASTKGPSVFPLAPSSKSTSGGTAALGCLVKDYFPEPVTVSWNSGALTSGVHTFPAVLQSSGLYSLSSVVTVPSSSLGTQTYICNVNHKPSNTKVDKKVEPKSCDKTHTCPPCAAPALLGGPSVFLFPPKPKDTLMISRTPEVTCVVVDVSHEDPEVKFNWYVDGVEVHNAKTKPREEQYNSTYRVVSVLTVLHQDWLNGKEYKCKVSNKALPAPEEKTISKAKGQPREPQVYTLPPSRDELTKNQVSLTCLVKGFYPSDIAVEWESNGQPENNYKTTPPVLDSDGSFFLYSKLTVDKSRWQQGNVFSCSVMHEALHNHYTQKSLSLSPGK light: DVLMTQTPLSLPVSLGDQASISCRSSRNIVHINGDTYLEWYLQRPGQSPKLLIYKVSNRFSGVPDRFSGSGSGTDFTLKISRVEAEDLGVYYCFQGSLLPWTFGGGTRLEIRRTVAAPSVFIFPPSDEQLKSGTASVVCLLNNFYPREAKVQWKVDNALQSGNSQESVTEQDSKDSTYSLSSTLTLSKADYEKHKVYACEVTHQGLSSPVTKSFNRGEC"
5,"3 relative, AAA at 0.1 µg/mL = 100","human IgG1 anti-human CCR4 antibody (KM2160), F243L/R292P/Y300L (antibody) heavy: EVQLVESGGDLMKPGGSLKISCAASGFIFSNYGMSWVRQTPDMRLEWVATISSASTYSYYPDSVKGRFTISRDNAENSLYLQMNSLRSEDTGIYYCGRHSDGNFAFGYWGRGTLVTVSAASTKGPSVFPLAPSSKSTSGGTAALGCLVKDYFPEPVTVSWNSGALTSGVHTFPAVLQSSGLYSLSSVVTVPSSSLGTQTYICNVNHKPSNTKVDKKVEPKSCDKTHTCPPCPAPELLGGPSVFLLPPKPKDTLMISRTPEVTCVVVDVSHEDPEVKFNWYVDGVEVHNAKTKPPEEQYNSTLRVVSVLTVLHQDWLNGKEYKCKVSNKALPAPIEKTISKAKGQPREPQVYTLPPSRDELTKNQVSLTCLVKGFYPSDIAVEWESNGQPENNYKTTPPVLDSDGSFFLYSKLTVDKSRWQQGNVFSCSVMHEALHNHYTQKSLSLSPGK light: DVLMTQTPLSLPVSLGDQASISCRSSRNIVHINGDTYLEWYLQRPGQSPKLLIYKVSNRFSGVPDRFSGSGSGTDFTLKISRVEAEDLGVYYCFQGSLLPWTFGGGTRLEIRRTVAAPSVFIFPPSDEQLKSGTASVVCLLNNFYPREAKVQWKVDNALQSGNSQESVTEQDSKDSTYSLSSTLTLSKADYEKHKVYACEVTHQGLSSPVTKSFNRGEC"
6,"71 relative, AAA at 0.1 µg/mL = 100","human IgG1 anti-human CCR4 antibody (KM2160), S239E/I332H (antibody) heavy: not shown light: DVLMTQTPLSLPVSLGDQASISCRSSRNIVHINGDTYLEWYLQRPGQSPKLLIYKVSNRFSGVPDRFSGSGSGTDFTLKISRVEAEDLGVYYCFQGSLLPWTFGGGTRLEIRRTVAAPSVFIFPPSDEQLKSGTASVVCLLNNFYPREAKVQWKVDNALQSGNSQESVTEQDSKDSTYSLSSTLTLSKADYEKHKVYACEVTHQGLSSPVTKSFNRGEC"
7,"135 relative, AAA at 0.1 µg/mL = 100","human IgG1 anti-human CCR4 antibody (KM2160), S239E/K326I (antibody) heavy: not shown light: DVLMTQTPLSLPVSLGDQASISCRSSRNIVHINGDTYLEWYLQRPGQSPKLLIYKVSNRFSGVPDRFSGSGSGTDFTLKISRVEAEDLGVYYCFQGSLLPWTFGGGTRLEIRRTVAAPSVFIFPPSDEQLKSGTASVVCLLNNFYPREAKVQWKVDNALQSGNSQESVTEQDSKDSTYSLSSTLTLSKADYEKHKVYACEVTHQGLSSPVTKSFNRGEC"
8,"-131 relative, AAA at 0.1 µg/mL = 100","human IgG1 anti-human CCR4 antibody (KM2160), K288N/A330S/P396L (antibody) heavy: EVQLVESGGDLMKPGGSLKISCAASGFIFSNYGMSWVRQTPDMRLEWVATISSASTYSYYPDSVKGRFTISRDNAENSLYLQMNSLRSEDTGIYYCGRHSDGNFAFGYWGRGTLVTVSAASTKGPSVFPLAPSSKSTSGGTAALGCLVKDYFPEPVTVSWNSGALTSGVHTFPAVLQSSGLYSLSSVVTVPSSSLGTQTYICNVNHKPSNTKVDKKVEPKSCDKTHTCPPCPAPELLGGPSVFLFPPKPKDTLMISRTPEVTCVVVDVSHEDPEVKFNWYVDGVEVHNANTKPREEQYNSTYRVVSVLTVLHQDWLNGKEYKCKVSNKALPSPIEKTISKAKGQPREPQVYTLPPSRDELTKNQVSLTCLVKGFYPSDIAVEWESNGQPENNYKTTPLVLDSDGSFFLYSKLTVDKSRWQQGNVFSCSVMHEALHNHYTQKSLSLSPGK light: DVLMTQTPLSLPVSLGDQASISCRSSRNIVHINGDTYLEWYLQRPGQSPKLLIYKVSNRFSGVPDRFSGSGSGTDFTLKISRVEAEDLGVYYCFQGSLLPWTFGGGTRLEIRRTVAAPSVFIFPPSDEQLKSGTASVVCLLNNFYPREAKVQWKVDNALQSGNSQESVTEQDSKDSTYSLSSTLTLSKADYEKHKVYACEVTHQGLSSPVTKSFNRGEC"
9,"129 relative, AAA at 0.1 µg/mL = 100","human IgG1 anti-human CCR4 antibody (KM2160), S239E/K326E (antibody) heavy: not shown light: DVLMTQTPLSLPVSLGDQASISCRSSRNIVHINGDTYLEWYLQRPGQSPKLLIYKVSNRFSGVPDRFSGSGSGTDFTLKISRVEAEDLGVYYCFQGSLLPWTFGGGTRLEIRRTVAAPSVFIFPPSDEQLKSGTASVVCLLNNFYPREAKVQWKVDNALQSGNSQESVTEQDSKDSTYSLSSTLTLSKADYEKHKVYACEVTHQGLSSPVTKSFNRGEC"
10,"57 relative, AAA at 0.1 µg/mL = 100","human IgG1 anti-human CCR4 antibody (KM2160), S239E/I332L (antibody) heavy: not shown light: DVLMTQTPLSLPVSLGDQASISCRSSRNIVHINGDTYLEWYLQRPGQSPKLLIYKVSNRFSGVPDRFSGSGSGTDFTLKISRVEAEDLGVYYCFQGSLLPWTFGGGTRLEIRRTVAAPSVFIFPPSDEQLKSGTASVVCLLNNFYPREAKVQWKVDNALQSGNSQESVTEQDSKDSTYSLSSTLTLSKADYEKHKVYACEVTHQGLSSPVTKSFNRGEC"
11,"62 relative, AAA at 0.1 µg/mL = 100","human IgG1 anti-human CCR4 antibody (KM2160), S239E/I332A (antibody) heavy: not shown light: DVLMTQTPLSLPVSLGDQASISCRSSRNIVHINGDTYLEWYLQRPGQSPKLLIYKVSNRFSGVPDRFSGSGSGTDFTLKISRVEAEDLGVYYCFQGSLLPWTFGGGTRLEIRRTVAAPSVFIFPPSDEQLKSGTASVVCLLNNFYPREAKVQWKVDNALQSGNSQESVTEQDSKDSTYSLSSTLTLSKADYEKHKVYACEVTHQGLSSPVTKSFNRGEC"
12,"52 relative, AAA at 0.1 µg/mL = 100","human IgG1 anti-human CCR4 antibody (KM2160), S239E/I332T (antibody) heavy: not shown light: DVLMTQTPLSLPVSLGDQASISCRSSRNIVHINGDTYLEWYLQRPGQSPKLLIYKVSNRFSGVPDRFSGSGSGTDFTLKISRVEAEDLGVYYCFQGSLLPWTFGGGTRLEIRRTVAAPSVFIFPPSDEQLKSGTASVVCLLNNFYPREAKVQWKVDNALQSGNSQESVTEQDSKDSTYSLSSTLTLSKADYEKHKVYACEVTHQGLSSPVTKSFNRGEC"
13,"132 relative, AAA at 0.1 µg/mL = 100","human IgG1 anti-human CCR4 antibody (KM2160), S239E/K326T (antibody) heavy: not shown light: DVLMTQTPLSLPVSLGDQASISCRSSRNIVHINGDTYLEWYLQRPGQSPKLLIYKVSNRFSGVPDRFSGSGSGTDFTLKISRVEAEDLGVYYCFQGSLLPWTFGGGTRLEIRRTVAAPSVFIFPPSDEQLKSGTASVVCLLNNFYPREAKVQWKVDNALQSGNSQESVTEQDSKDSTYSLSSTLTLSKADYEKHKVYACEVTHQGLSSPVTKSFNRGEC"
14,"-9 relative, AAA at 0.1 µg/mL = 100","human IgG1 anti-human CCR4 antibody (KM2160), F243L/R292P/Y300L/V305I/P396L (antibody) heavy: EVQLVESGGDLMKPGGSLKISCAASGFIFSNYGMSWVRQTPDMRLEWVATISSASTYSYYPDSVKGRFTISRDNAENSLYLQMNSLRSEDTGIYYCGRHSDGNFAFGYWGRGTLVTVSAASTKGPSVFPLAPSSKSTSGGTAALGCLVKDYFPEPVTVSWNSGALTSGVHTFPAVLQSSGLYSLSSVVTVPSSSLGTQTYICNVNHKPSNTKVDKKVEPKSCDKTHTCPPCPAPELLGGPSVFLLPPKPKDTLMISRTPEVTCVVVDVSHEDPEVKFNWYVDGVEVHNAKTKPPEEQYNSTLRVVSILTVLHQDWLNGKEYKCKVSNKALPAPIEKTISKAKGQPREPQVYTLPPSRDELTKNQVSLTCLVKGFYPSDIAVEWESNGQPENNYKTTPLVLDSDGSFFLYSKLTVDKSRWQQGNVFSCSVMHEALHNHYTQKSLSLSPGK light: DVLMTQTPLSLPVSLGDQASISCRSSRNIVHINGDTYLEWYLQRPGQSPKLLIYKVSNRFSGVPDRFSGSGSGTDFTLKISRVEAEDLGVYYCFQGSLLPWTFGGGTRLEIRRTVAAPSVFIFPPSDEQLKSGTASVVCLLNNFYPREAKVQWKVDNALQSGNSQESVTEQDSKDSTYSLSSTLTLSKADYEKHKVYACEVTHQGLSSPVTKSFNRGEC"
15,"90 relative, AAA at 0.1 µg/mL = 100","human IgG1 anti-human CCR4 antibody (KM2160), printed as S239E/I332E, CH of SEQ ID NO 178 (antibody) heavy: not shown light: DVLMTQTPLSLPVSLGDQASISCRSSRNIVHINGDTYLEWYLQRPGQSPKLLIYKVSNRFSGVPDRFSGSGSGTDFTLKISRVEAEDLGVYYCFQGSLLPWTFGGGTRLEIRRTVAAPSVFIFPPSDEQLKSGTASVVCLLNNFYPREAKVQWKVDNALQSGNSQESVTEQDSKDSTYSLSSTLTLSKADYEKHKVYACEVTHQGLSSPVTKSFNRGEC"
